Test results from publication PMC4946999 (ACS chemical biology, 2016).

B1: Nurr1 ligand-binding domain (LBD) (domain or fragment)
chain: MVKEVVRTDSLKGRRGRLPSKPKSPQEPSPPSPPVSLISALVRAHVDSNPAMTSLDYSRFQANPDYQMSGDDTQHIQQFYDLLTGSMEIIRGWAEKIPGFADLPKADQDLLFESAFLELFVLRLAYRSNPVEGKLIFCNGVVLHRLQCVRGFGEWIDSIVEFSSNLQNMNIDISAFSCIAALAMVTERHGLKEPKRVEELQNKIVNCLKDHVTFNNGGLNRPNYLSKLLGKLPELRTLCTQGLQRIFYLKLEDLVPPPAIIDKLFLDTLPF

Experiments:
[1] = target: FITC-labeled PIASγ peptide derived from the essential PIASγ LXXLL motif; assay: fluorescence polarisation
SEC = target: the molecule itself; assay: SEC

Molecule	Kd [1]	stoichiometry N (SEC)
Nurr1 ligand-binding domain (LBD) (from UniProt P43354 328-598) (domain or fragment)	3.5 µM	–
B1	–	2
